Data published in patent US20200181261A1 (Bayer, published 2020).
Substitutions are numbered along the chain they refer to.

T1: human CEACAM6, extracellular (mature form), R&D Systems 3934-CM (human, UniProt P40199 35-320)
T1 construct: used biotinylated in some assays; also called TPP-1436; Recombinant human CEACAM6
T1 sequence: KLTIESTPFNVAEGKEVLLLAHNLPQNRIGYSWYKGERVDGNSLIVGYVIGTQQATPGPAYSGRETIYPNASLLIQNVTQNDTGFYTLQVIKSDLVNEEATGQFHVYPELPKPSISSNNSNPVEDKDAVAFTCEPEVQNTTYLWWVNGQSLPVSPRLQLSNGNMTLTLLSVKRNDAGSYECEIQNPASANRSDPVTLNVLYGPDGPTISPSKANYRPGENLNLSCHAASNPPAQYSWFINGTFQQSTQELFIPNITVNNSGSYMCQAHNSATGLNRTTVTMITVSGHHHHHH

T2: human CEACAM1, extracellular (mature form), R&D Systems 2244-CM (human, UniProt P13688 35-428)
T2 construct: used biotinylated in some assays; also called TPP-1437; hC1
T2 sequence: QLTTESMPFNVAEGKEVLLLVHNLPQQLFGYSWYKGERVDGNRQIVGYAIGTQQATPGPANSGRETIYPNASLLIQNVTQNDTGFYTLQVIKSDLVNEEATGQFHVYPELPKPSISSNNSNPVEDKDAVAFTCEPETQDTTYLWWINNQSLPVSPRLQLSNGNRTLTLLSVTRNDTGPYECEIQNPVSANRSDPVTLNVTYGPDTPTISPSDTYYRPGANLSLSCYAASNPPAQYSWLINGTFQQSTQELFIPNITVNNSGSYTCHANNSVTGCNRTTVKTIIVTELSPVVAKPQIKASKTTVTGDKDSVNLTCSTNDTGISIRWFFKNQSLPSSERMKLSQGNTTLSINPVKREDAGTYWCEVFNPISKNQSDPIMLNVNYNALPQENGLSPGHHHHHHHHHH

T3: Macaca fascicularis CEACAM6-Domain 1, obtained by Factor Xa cleavage of TPP-2452 (Macaca fascicularis)
T3 construct: also called APP-325; cynoC6-D1
T3 chain: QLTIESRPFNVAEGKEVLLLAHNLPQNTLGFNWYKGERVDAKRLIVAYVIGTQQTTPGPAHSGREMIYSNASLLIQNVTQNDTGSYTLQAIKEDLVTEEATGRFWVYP

B1: TPP-3705 (antibody, human IgG2, kappa, V domains shown)
VH: EVQLVESGGGLVQPGGSLRLSCAASGFTFSLYQMHWVRQAPGKGLEWVSWISFSGGNTGYADSVKGRFTISRDNSKNTLYLQMNSLRAEDTAVYYCARATGYSSPWYLDPWGQGTLVTVSS
VL: DIQMTQSPSSLSASVGDRVTITCQASHEIDNYLNWYQQKPGKAPKLLIYDAYWLKTGVPSRFSGSGSGTDFTLTISSLQPEDIATYYCQGYDDLSVTFGGGTKVDIKR
notes: also called 090E-M007-A09-Mat1-hIgG2-hIgG2Kappa
B2: TPP-3707 (antibody, human IgG2, kappa, V domains shown)
VH: B1 VH
VL: B1 VL with L54S
notes: also called 090E-M007-A09-Mat2-hIgG2-hIgG2Kappa
B3: TPP-3310 (antibody, human IgG2, kappa)
heavy: QVTLRESGPALVKPTQTLTLTCTFSGFSLSTYGIGVGWIRQPPGKALEWLAHIWWNDNKYYSTSLKTRLTISKDTSKNQVVLTMTNMDPVDTATYYCARISLPYFDYWGQGTTLTVSSASTKGPSVFPLAPCSRSTSESTAALGCLVKDYFPEPVTVSWNSGALTSGVHTFPAVLQSSGLYSLSSVVTVPSSNFGTQTYTCNVDHKPSNTKVDKTVERKCCVECPPCPAPPVAGPSVFLFPPKPKDTLMISRTPEVTCVVVDVSHEDPEVQFNWYVDGVEVHNAKTKPREEQFNSTFRVVSVLTVVHQDWLNGKEYKCKVSNKGLPAPIEKTISKTKGQPREPQVYTLPPSREEMTKNQVSLTCLVKGFYPSDIAVEWESNGQPENNYKTTPPMLDSDGSFFLYSKLTVDKSRWQQGNVFSCSVMHEALHNHYTQKSLSLSPG
light: DIQLTQSPSFLSASVGDRVTITCKASQNVGTAVAWYQQKPGKAPKLLIYSASNRYTGVPSRFSGSGSGTEFTLTISSLQPEDFATYYCQQYSSYPLTFGGGTKVEIKRTVAAPSVFIFPPSDEQLKSGTASVVCLLNNFYPREAKVQWKVDNALQSGNSQESVTEQDSKDSTYSLSSTLTLSKADYEKHKVYACEVTHQGLSSPVTKSFNRGEC
notes: humanized from TPP-2971, human IgG2; also called TPP-2971HU1-hIgG2Kappa
B4: TPP-3714 (antibody, human IgG2, kappa)
heavy: B3 heavy with T113L, L114V
light: B3 light
notes: humanized from TPP-2971, human IgG2; also called TPP-2971HU2-hIgG2Kappa
B5: TPP-2971 (antibody, mouse IgG1, V domains shown)
VH: QVTLKESGPGILQPSQTLSLTCSFSGFSLSTYGIGVGWIRQPSGKDLEWLAHIWWNDNKYYNTALKSRLTISKDTSNNQVFLKIASVDTADTATYYCARISLPYFDYWGQGTTLTVSS
VL: DIVMTQSQKFMSTSVGDRVSITCKASQNVGTAVAWYQQKPGQSPKLLIYSASNRYTGVPDRFTGSGSGTDFTLTISNMQSEDLADYFCQQYSSYPLTFGAGTKLELK
notes: murine hybridoma antibody, mouse IgG1; also called 792.15H12C9
B6: TPP-3187 (antibody, mouse IgG1, V domains shown)
VH: B5 VH with S30T, D46G
VL: B5 VL with S92N, S93N
notes: murine hybridoma antibody, mouse IgG1; also called 792.15C4F4

Experiments:
[1] = target: T1, human CEACAM6, extracellular (mature …); assay: ELISA, antibody captured, biotinylated antigen titrated
Procedure: The binding characteristics of these antibodies were also determined by a binding ELISA (monovalent binding, biotinylated CEACAM proteins): A 1:440 dilution of an anti-human IgG (Sigma, 12136) in Coating buffer (Candor) was used to coat black 384-well Maxisorp plates (Nunc) for 1 hour at 37° C. After one wash with PBS/0.05% Tween-20 the plates were blocked with 100% SmartBlock (Candor) for 1 hour at 37° C. After three washes, 2 μg/ml of the relevant antibodies were added to the plate in PBS/0.05% Tween-20/10% SmartBlock. The plates were incubated for 1 hour at room temperature. After three washes dilution series of the relevant biotinylated CEACAM proteins in PBS/0.05% Tween-20/10% SmartBlock were added and the plates were incubated for one hour at room temperature. After three washes 1 μg/ml of Streptavidin-Peroxidase (Sigma, S5512) in PBS/0.05% Tween-20/10% SmartBlock was added and the plates were incubated for 30 minutes at room temperature. After three washes, the plates were developed with Amplex Red (Life Technologies) and fluorescence was read at an emission wavelength of 590 nm. GraphPad Prism 6.0 software was used to calculate EC₅₀ values using four-parameter non-linear curve fit.

[2] = target: T2, human CEACAM1, extracellular (mature …); assay: ELISA, antibody captured, biotinylated antigen titrated; binding ELISA, biotinylated CEACAM1 titrated up to 2000 ng/ml; ambiguous fit
[3] = target: T3, Macaca fascicularis CEACAM6-Domain 1, …; assay: SPR, antibody captured, antigen as analyte

Binder | EC50 [1] | fold better binding than to human CEACAM3 (ratio of EC50 values) [1] | EC50 [2] | Kd [3]
B1 | 0.18 nM | ~620 fold | > 2 µg/mL | 
B2 | 0.19 nM | ~730 fold | > 2 µg/mL | 
B3 | 0.09 nM |  |  | 
B4 | 0.09 nM |  |  | 
B5 |  |  |  | 30 nM
B6 |  |  |  | 42 nM
